The DeepSol protein solubility set

experiment: soluble on expression in E. coli; label from the status in PepcDB or PDB records

Row | Sequence | soluble on expression in E. coli
1 | MSSDNEIEDLKRAFIFALRKKFPRDSSSSIAIATVNLIRKIIFRENPKTMNDLQVSLANHCKKLHGAERSELIIINIGLMITKLARDEVLQKKGGGEPEPLYTLWRDDDETIKKLKTADMKKIKKDLQASIKELVTEIESSRECIASQSTELLFNNDVVLVHSLRSSQTMHNFLSHAVKSGRKHRVIDVVDEEEHIESTPDFATAIELYEVASKMPEASKVVLVAAAYFPDGSCLVPAGGHQIALLAKRHCVPVYVLAPFYKLCPFFMTNPDSLHTFRSNSLPFDLSAKSAGLVDCLHPAFDCLQSDLVTLFVSNTSCVIPSHVNRLKEDYYHSQDIADY | not soluble
2 | MERVAPNGQFKDVGVDQLFFSTTDAQGRIQETNNTFVELSRYTEEELRNAAHNIIRHPFMPGGVFKIMWDKLQRGETFAGYVRNLAHSGETYDVFATVTPIPGTHDYLSVRQRPCHDDHRALAMTIYAEVGDYEAQLRKDGMSAREAAEAGAGLIGDKLRESGFDNFDAYAHAMLPWEVFCRENMSTGLPQREVAGDLGTELAQAHDVHDHLDEWMLRLDELLTTAQQLGEAREELVDSLGQTSSLGDTIDARSASETLQIVQFQLNVWKGMQKIVDSYVVELAELITTLANDTLRERFQISVSRLHTAMLATFLAELIDGTSATANTEHKVALLKATMRDSLEAIDRGAFHRAQLVRSTISCIRTVTSLMESPRSLLTEAIREAQSLNNDELSAAIATELERSERAANNMHQLVATLESTATTPDIAAMLAEL | not soluble
3 | MGPDTTSERVSEDLMQAVTCLKRVMVGMKSNGTDYVQEQTPSNSTTVICTLVKITGALERCIESNKAMNDVLNGKMKCTTCGATSVGLLSDCHDSATSTTTTVSHRSSEEPPRRKPSAAGGDHDDEELECSSIESRSIRSVSSSVHTSAEDDETNQTMMVPTDVADVINAIVAGTNGSSNSNTTSSSKSPQEEEEEHDLVMKSILSTTTSTSNTKLELSEKLENPLQDTALLDQFLQASLLGQTPTVTPASEENEEDKEQNAVLTSFLQILFANQQAGNAILDAGSSENDGSTSSSQPSPPADPTASLDSLAMFESLLAESMNGNVLDANTSSADQKAAARKRKSTPMKVPKSENGAGYICPMDGCNKVFKEKGSVHRHFVTHIGMRFNCDKCKASYTQKHALMLHQKIHANPDAYQCRGCGTNYTTQNGLRLHRQRNPACMEVSNALEFNTSLNTSISEALSGPLSKNSSPTKQMVSAP | not soluble
4 | MGSEIDQNDTDSSTQEWYRLLVVEKSTTLSDFMTSKRTKMVSDFPEEREEAIEEIIEVISTFPMDFLQKDEVSLLLNYFINSIESSALTGGAVIRGVHHLILKSKNLPDNFEVSLIRVLFKEGNVQSWAQKERQLQYEILIWFLKYRLSFLKGLGPDFLATFMKSVSGERDPRCLVHMFSAFLEVSNNFTLGPFTEDMFETIACYFPVEFKPQKTDTITREYLAASCASCLVSSPSFAPFCFLFIDEKLNDDDCSDEEYEDVLNLLILAYNRFPAQKKNLSLIEPLIGGIRKIGLNPKNKGEMQKYVSQAFEAVIKLCTKSSETNSKALDGIVSSIVEDSEPFVLQAEMGLCKKALTLLRSAFKSLPDKNSRQIFNQVIAWILNLIQGDSVNAAGNRADIVQEGLEYLVEWIQLASEYKELSIETLAVFEQSIFESCSRAREFKPREAITAIYECASVYFESDCASDELISQCRSYIALALRTPIDTDSDFQSLLKLIRIYSSKNFDQVEIILADNETNSWNAMKVLPVLCAISCSQRWNLLKNKIVDELGSTISSSTEISYLICYVQMMEKCKKDPQLFHQQFEVFESVLYKTDCNEPVSVSYLMQSISLLLSEDDHQKFMNQTTTRYQSLEGSSLDNFNQKYRLAYLQNKNTNDLKTIANLKLPERTIRQLFFAICNREAENENNSEIPEQHHIAEIKAKLLRNAPNSLSAFEQFLTNISGSTESPFEYLLDFDSFDSNPDRCRYETASPLWRQRIFCQIVPIFKRKFEEPGSQKHVLVEMLPHLLTFAVPLDFQQLKKQFAMLLPVLIQTIGMEDVIPSHVTRTIPMFLTISEPLQPKDLGTVVKYLCSITRDNDSNMTNLEDALNGLNILARRQPPKSLHSEVPLVVTSINKILGHKKRLLRMMAADVKNNWEMVITK | not soluble
5 | MLFTKASEYALLSLIYISQKETPQDVDSLALELDIPKSFLAKILQTLAKDGLLKSFKGAKGGFVLIKEPSQYTIKEIVNSAEKKDISVFECSGGTCPNNKEENCTLMPMLVNLQNKVDEFLDSITLEDIMKNNGKK | soluble
6 | MKVYYPGREWPEEYKRVLEKMKEIIDPVTGDNILDSGVVAGLEVKDRTLKVWLRFESQAEYNILGGAAMAYSKIVGDIMEKFALVMFDNVYVYDLRNNIVGVFEKKK | soluble
7 | MGSDKIHHHHHHMISERMERQLDFIVAIDALKDITRQSITTGSRRQENDAEHSWHLAVMAMILSEYAEDQTIDIAKVISMVLIHDLVEIYAGDTYCYDEKGYEDKAEREQEAADRLFNMLPEDQAQRMMSLWQEFEEMETKEAAFAATLDRFQPLLLNYNTEGHTWQRPGITSEKVLKRTEIAKEKVPQLYVYIERLIQRSIERGMLKP | not soluble
8 | MLEEYEKKRDFNKTSEPPARGEEKNSDKPVFVVQRHDATNLHYDFRLEMDGVLKSWAVPKEPPKSPGTRRLAIETEDHPLGYADFEGEIPEGQYGAGRVEIWDRGTFELLKRNEKEIIITLHGEELEGDYVLIKTKYGKEDKGWLFFKKKTGLEHHHHHH | soluble
9 | MGSDKIHHHHHHMASSTSIDFKGNVTGALADRQLRANFRSALDGLRAKRLNVFSDAEELDRMRVQGEANKRRALAQLPALLEQLEHRCTANGIIVHWAETTDEANRIVLDIMRSHDATTLVKGKSMVSEEMHLNAYLERHGIEALETDLGEFIIQLNHEPPSHIIVPAVHKNRQQVARIFHEKLGEPYVDEVEKLNAIARRTLREKFRTAQVGLSGVNFAIAETGTLLLVENEGNGRMCTTVPPVHIALMGLEKVVERLEDVPPLLRLLTGSATGQLVTTYVNCITSPRKPGEKDGPREVHLVILDNGRSRMLADPQLSRTLQCIRCGTCLNHCPVYVRIGGHAYDSVYPGPIGKILTPQIDGLARKGVLATASSLCNACEEVCPVRIPIPALLRRLRRESYAPPGEGVVKGAGSKRTLFEKAVWKGWEMVYSHPALYSFVLKVLGRFGHRLPKVGPLKAWTSVRTAPRFASTSLHELTRQEGIRHE | not soluble
10 | MENESKTINIELPEEIAQGNYCNLCIVMHSPSEFVLDFIRMVPNRDTARVQNRIILTPDNAKRLLTTLSDNIHRYEVEHGEIHTEQRVSDATFTFPTKIKGEA | soluble
11 | MAHHHHHHMSPLDACREQYEKDLANQTHCCMLEHVEEENRAANRKVFVRLLRYQQDINTRGTLPFEPDPTDAQKKSKGGNSAAPAYPENLTIRDPRQLKQILPIPDIHKVSDCDLIYRFLIARRMDVDLATNDILSYIGFREKYSLDTILWDREVEAVFNGLDGEELVQQVMGEMKKGATPAPKVKITRPLLQAGWAAWYCGVDKRGHVIFYQRPNPKELAMLEKRWPYIEGQYDCRNPEFHSVTPPYSNLLSRVYLREVEKGRRISRLLNYNQQYIIREGLHVQTTVKPTSTDTFMDNGGGATCLVDVGSIKLSHLTSSKCKKAFKLFRVLSLTGQSFYPENMSRMIIINGGFVFNMLFKLVRPWLDPQTQKKIVLLSATNRATLDELSSDSNLMSQSHETNDSEESDDDGTPVVGTDSERAKYALRDALAEYIHEDFIPSWYGGRLPVVDSPLFYGASPPKSLAENPQFAAACERLRARVVPQLLPDAFIFANAKEREGVGQEEWEAFCSMTERTLFRKQASTQCSSHS | not soluble
12 | GPGSMVPTLHPGEYIVFVPYTMLQVRRWFNAPLVNLSDVVVVKVSDDLSVCKRVVKCTSSRTQAEEWGKEHYVEVMPALYSPPAAQHTNGDDEDSTEIDSVANSERAYFDYVARNTVRSKDWDSCIDRIPNPSQWVWLEGDNKSESFDSRRCGPVPIECIRGLVLASIWPSPHTLQRPPPPPRASQLH | not soluble
13 | MGSDKIHHHHHHMTITEKRKDFILNSWIKISDDCLKEYLSRELELTDKGQVKSTTTNIITAIVNPDYCVSHKILNGSVFFDTCSQTIRLIGSIKGESEVNLKAPRKWTDQLTNLLGVEIEMNFGIKYSKGRMEEAVIFIANKRRVNLPKLYMKSLKYDGEDYISKLLPKYLGVDDTALNRWIMEHMLIGMVNRVFYPGCKFDEIMVLTGEQGVGKTSFIEKLALLPDWYCSLNNIKGKDAVSNLVGKIVVELEEFVALKNAKTADEAKLFISTRTSTVRLSYERFSADVDRTCIMIATTNDMTFLGDFSGERRYLPVQVHKEKVGLPVMYDQEKFPQLKGVSREEYSKIVKKDFEGAVAQAVYLFENKLYSPVLPVELRKDLNQVIQMHKNENRHVQNFFEFMDWKDTKSDTPNRVCSGEFLSQYPQTNEKVFAELMANEMADKWELEPTDKSRKFKIDGRVRVSKKFYVRKNMPDFIEVTDDIEIPF | not soluble
14 | MGSDKIHHHHHHMNYEDFKEVIHGRRSVRKFTEQEVATSDIKDIIDCARYAPSDTNSQTWEFLVIMNREKIKEIEQMTWDALHKLAAKAAKNGEEKAGKLLTRSFGPYATAFSEAPVLIVCLATPYESKFREKIFDPIAFVPDSVWEEEGIKSSCLAAQNLMLAAHAKGLGTCPMTGPVLLAQDELRQYLQIEPEKQINMVISLGFPKDKPKKLPRKEVDEITTFVF | not soluble
15 | MSKRKAEEAPAPKLASIFTKKVKPAEEDNNQKSWKFVCWNVAGLRACVKKSDFKEVLAEEPDLVFLGETKCKEWPPEMEETFKNYTKTLVVSTEKNGGYAGVGLLSKCAPMKVHKGIGDPEFDTAGRLIIAEFSKFYFIGAYVPNSGAKLVNLEKRGRWEKLLTEKMKEMDEKKPVIYGGDLNVAHNEIDLKNPESNRNKTAGFTDQERGWFSEMLELGFTDTFRAMHPDEKKYSFWSYLANSRQKDVGWRLDYYVVSNRIMNKVKRSDIMSSVMGSDHAPVVMQIDF | soluble
16 | RVLQELHESEAQNRALLNAIPDMMLHVCREGTILDFRAGNGCAYAAFGGNLRGRTIADLLPPGAAAQFMAQVGHALATGTMMVCEYELEGPGGLNTHEARIVANGTGTVLAIVRDVT | not soluble
17 | MSKYAGIVLAGGMSSRFGEPKALAIWKETTFVEHIVKVMGNTLQDIVVISHTDIKERVEQFVQVPVIEDIPHYKGNGPLAGIVSGMEYIEADWYAIMPCDAPNVSHEWFTILLEQTNNEYDAVVPIINGRKQPLLAAYHNRVKEKIYALLQEEKRSMGQLLSQCNVKYVSGEDVQANADWFINVNTKEEYVQAQKDLSNE | soluble
18 | MSLTVNNVGLRYGDKKLFEDVSIKFLPGNCYGLIGANGAGKSTFLKVLSGELDSQSGNVHIGSGERLAVLRQDHFQYDNELVLNTVIMGHERLYKIMDEKNAIYMKEDFSDEDGIRAAELEGEFAELDGWEAESDAAVLLNGLGIPTDLHGKLMKDLTGGEKVKVLLAQALFGKPDILLLDEPTNHLDIRAIHWLEEFLINFDNTVIVVSHDRHFLNKVCTHIADLDFSKIKLYVGNYDFWYESSQLAQTMMGDRNKKKEEKMKELQDFIARFSANASKSKQATSRKKMLEKITLEDIQPSSRRYPFIQFKPDREVGNDLLTVTNLSKTIDGVKILDNLSFSINRNDKVALVGDDEVAKTVLFQILAGEMEPDEGSYKWGITTSQSYFPKDNSEFFEENDMSLVEWLRQFSPEDDSEAFLRGFLGRMLFSGDEVLKKVRVLSGGEKVRCMLSKMMLSGSNVLLLDEPTNHLDLESITALNNGLEAFKGAMIFASHDHQLLQTIATRIINLSKDQFYNKEISYDEYLKEVMNVAEGHHHHHH | soluble
